Experimental data as given in patent US20220260563A1.

Columns and labels:
Test in all cases: cell-based or functional assay
[1] = target: AAV2 capsid (AAV2-Luciferase vector virions) (AAV2) (UniProt P03135)
[2] = target: human intravenous immunoglobulin gamma (IVIG), 10% Human IVIG (Gamunex) (human)
[3] = target: AAV neutralizing antibodies in AAV8-GFP immunized C57BL6 mice (mouse)
[4] = target: AAV2 capsid (AAV2-Luciferase vector virions) (AAV2) (UniProt P03135); remark: listed apart in the source
[5] = target: human intravenous immunoglobulin gamma (IVIG), 10% Human IVIG (Gamunex) (human); remark: listed apart in the source

UniProt P03135, sequence (P03135 whole entry, the tested form may be a part): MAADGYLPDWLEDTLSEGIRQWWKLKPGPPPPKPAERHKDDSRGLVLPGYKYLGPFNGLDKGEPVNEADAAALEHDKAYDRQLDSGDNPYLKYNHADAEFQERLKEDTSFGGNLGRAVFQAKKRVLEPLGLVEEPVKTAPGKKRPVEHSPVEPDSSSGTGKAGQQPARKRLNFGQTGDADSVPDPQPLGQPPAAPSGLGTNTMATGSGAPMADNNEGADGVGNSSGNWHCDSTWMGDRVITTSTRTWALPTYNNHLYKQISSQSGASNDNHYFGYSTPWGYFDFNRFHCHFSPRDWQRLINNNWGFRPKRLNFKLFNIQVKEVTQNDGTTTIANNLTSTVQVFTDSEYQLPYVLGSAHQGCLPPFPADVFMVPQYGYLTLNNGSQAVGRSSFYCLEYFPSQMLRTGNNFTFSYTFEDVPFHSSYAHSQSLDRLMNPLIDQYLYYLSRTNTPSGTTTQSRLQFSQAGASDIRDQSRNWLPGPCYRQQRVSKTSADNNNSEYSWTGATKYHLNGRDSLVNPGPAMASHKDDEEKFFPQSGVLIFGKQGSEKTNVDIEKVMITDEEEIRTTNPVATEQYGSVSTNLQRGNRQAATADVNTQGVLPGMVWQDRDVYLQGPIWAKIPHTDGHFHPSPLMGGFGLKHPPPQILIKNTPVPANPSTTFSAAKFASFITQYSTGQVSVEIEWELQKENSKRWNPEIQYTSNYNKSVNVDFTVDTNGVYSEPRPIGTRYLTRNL

Molecule: human intravenous immunoglobulin gamma (IVIG), 10% Human IVIG (Gamunex) (antibody)
- percent of AAV2-Luciferase signal neutralized by 12.5 µg IVIG [1]: 80%
- percent of AAV2 neutralized by 12.5 µg IVIG [1]: 75%
- percent of AAV2 neutralized by 200 µg IVIG [1]: 100%
- reduction in AAV signal by 12.5 µg IVIG without protein M [1]: 68%

Molecule: Protein M without cleavage of His tag (from UniProt P47523 37-556)
- molar ratio of protein M to AAV2 particle at which enhancement begins to saturate (protein M molecules per AAV2 particle) [1]: 700000
- molar ratio of protein M to AAV2 particle below which enhancement of luciferase signal is abolished (protein M molecules per AAV2 particle) [1]: < 40000
- molar ratio of protein M to IVIG that protects AAV2 when protein M is pre-incubated with AAV2 (protein M molecules per IgG molecule) [2]: > 2
- protection of AAV2 from IVIG neutralization in 10% FBS, protein M to total IgG molar ratio (protein M molecules per IgG molecule) [2]: 1

B1: Modified M. genitalium protein M MG29 (protein, not shown: small tags and cut ends)
chain: SLSLNDGSYQSEIDLSGGANFREKFRNFANELSEAITNSPKGLDRPVPKTEISGLIKTGDNFITPSFKAGYYDHVAEDGSLLSYYQSTEYFNNRVLMPILQTTNGTLMANNRGYDDVFRQVPRFPGWSNTKATTVSTSNNLTYDKWTYFAAKGSPLYDQYPNHTFEDVKTLAIDAKDISALKTTIDSEKPTYLIIRGLSGNGSQLNELQLPESVKKVSLYGDYTGVNVAKQIFANVVELEFYSTSKANSFGFNPLVLGSKTNVINDLFVSKPFTHIDLTQVTLQNSDNSAIDANKLKQAVGDIYNYRRFERQFQGYFAGGYIDKYLVKNVNTNKDSDDDLVYRSLKELNLHLEEAYREGDNTYYRVNENYYPGASIYENERASRDSEFQNEILKRAEQNGVTFDEN
- luciferase signal of the saline leg against the protein M formulated leg, AAV8-Luciferase re-dosing in immunized mice [3]: > 98 % less

B2: protein M (SEQ ID NO:2), His-tag removed by thrombin cleavage (protein)
chain: HHHHHHSSGLVPRGSHMTNLVNQSGYALVASGRSGNLGFKLFSTQSPSAEVKLKSLSLNDGSYQSEIDLSGGANFREKFRNFANELSEAITNSPKGLDRPVPKTEISGLIKTGDNFITPSFKAGYYDHVASDGSLLSYYQSTEYFNNRVLMPILQTTNGTLMANNRGYDDVFRQVPSFSGWSNTKATTVSTSNNLTYDKWTYFAAKGASPLYDSYPNHFFEDVKTLAIDAKDISALKTTIDSEKPTYLIIRGLSGNGSQLNELQLPESVKKVSLYGDYTGVNVAKQIFANVVELEFYSTSKANSEGFNPLVLGSKTNVIYDLFASKPFTHIDLTQVTLQNSDNSAIDANKLKQAVGDIYNYRRFERQFQGYFAGGYIDKYLVKNVNTNKDSDDDLVYRSLKELNLHLEEAYREGDNTYYRVNENYYPGASIYENERASRDSEFQNEILKRAEQNGVTFDENIKRITASGKYSVQFQKLENDTDSSLERMTKAVEGLVTVIGEEKFETVDITGVSSDTNEVKSLAKELKTNALGVKLKL
- AAV2 luciferase signal relative to PBS control, 33 µg protein M incubated with AAV2 without IVIG (% of PBS control) [4]: 216
- AAV2 luciferase signal relative to PBS control, 75 µg protein M incubated with AAV2 without IVIG (% of PBS control) [4]: 208
- AAV2 luciferase signal, percent of no-IVIG control, at 8:1 molar ratio (33 µg protein M, 12.5 µg IVIG) (% of no-IVIG control) [5]: 194
- AAV2 luciferase signal, percent of no-IVIG control, at 20:1 molar ratio (75 µg protein M, 12.5 µg IVIG) (% of no-IVIG control) [5]: 256
- AAV2 luciferase signal, percent of no-IVIG control, at protein M:IgG molar ratio 0.5:1 (% of no-IVIG control) [5]: 40
- AAV2 luciferase signal, percent of no-IVIG control, at protein M:IgG molar ratio 1:1 (% of no-IVIG control) [5]: 52
- AAV2 luciferase signal, percent of no-IVIG control, at protein M:IgG molar ratios greater than 2:1 (% of no-IVIG control) [5]: 108 to 193
- molar ratio of protein M to IgG sufficient to prevent AAV2 neutralization (protein M molecules per IgG molecule) [5]: 2
